From patent US20210388110A1 (published 2021)

Target: T1, soluble human CD3ε chain (human, UniProt P07766 23-126, limits assumed)
T1 construct: the text says soluble human CD3ε chain; also called human CD3 epsilon chain
Experiment: SPR (Biacore)

T1 sequence (P07766 23-126 limits assumed): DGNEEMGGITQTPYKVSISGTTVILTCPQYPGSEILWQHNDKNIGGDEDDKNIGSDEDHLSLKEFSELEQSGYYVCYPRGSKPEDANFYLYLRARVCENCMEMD

| Binder | Kd |
| --- | --- |
| CE115HA192-E22Hh//-Hi-Kn010G3/L0000-k0 (antibody, human IgG1, kappa, L234A L235A, N297A, single-arm) heavy: QVQLVESGGGVVQPGRSLRLSCAASGFTFSNAWMHWVRQAPGKGLEWVAQIKAKSNNYATYYAESVKGRFTISRDDSKNSLYLQMNSLKTEDTAVYYCRYVHYYAYYGVDAWGQGTTVTVSSASTKGPSVFPLAPSSKSTSGGTAALGCLVKDYFPEPVTVSWNSGALTSGVHTFPAVLQSSGLYSLSSVVTVPSSSLGTQTYICNVNHKPSNTKVDKKVEPKSCDKTHTCPPCPAPEAAGGPSVFLFPPKPKDTLMISRTPEVTCVVVDVSHEDPEVKFNWYVDGVEVHNAKTKPREEQYASTYRVVSVLTVLHQDWLNGKEYKCKVSNKALPAPIEKTISKAKGQPREPQVYTLPPSRCELTKNQVSLSCAVKGFYPSDIAVEWESNGQPENNYKTTPPVLDSDGSFFLVSKLTVDKSRWQQGNVFSCSVMHEALHNHYTQKSLSLSPDYKDDDDK EPKSSDKTHTCPPCPAPELLGGPSVFLFPPKPKDTLMISRTPEVTCVVVDVSHEDPEVKFNWYVDGVEVHNAKTKPREEQYNSTYRVVSVLTVLHQDWLNGKEYKCKVSNKALPAPIEKTISKAKGQPREPQVCTLPPSRDELTKNQVSLWCLVKGFYPSDIAVEWESNGQPENNYKTTPPVLDSDGSFFLYSKLTVDKSRWQQGNVFSCSVMHEALHNRYTQKSLSLSP light: DIVMTQSPLSLPVTPGEPASISCRSSQSLVHSNRNTYLHWYQQKPGQAPRLLIYKVSNRFSGVPDRFSGSGSGTDFTLKISRVEAEDVGVYYCGQGTQVPYTFGQGTKLEIKRTVAAPSVFIFPPSDEQLKSGTASVVCLLNNFYPREAKVQWKVDNALQSGNSQESVTEQDSKDSTYSLSSTLTLSKADYEKHKVYACEVTHQGLSSPVTKSFNRGEC | 50.5 nM |
| TR01H006-E22Hh/none-Hi-Kn010G3/L0000-k0 (antibody, human IgG1, kappa, L234A L235A, N297A, single-arm) heavy: QVQLVESGGGLVQPGRSLRLSCAASGFTFSNAWMHWVRQAPGKGLEWVAQIKAKSQNYATYYAESVKGRFTISRADSKNSIYLQMNSLKTEDTAVYYCRYVHYGAYYGVDIWGQGTTVTVSSASTKGPSVFPLAPSSKSTSGGTAALGCLVKDYFPEPVTVSWNSGALTSGVHTFPAVLQSSGLYSLSSVVTVPSSSLGTQTYICNVNHKPSNTKVDKKVEPKSCDKTHTCPPCPAPEAAGGPSVFLFPPKPKDTLMISRTPEVTCVVVDVSHEDPEVKFNWYVDGVEVHNAKTKPREEQYASTYRVVSVLTVLHQDWLNGKEYKCKVSNKALPAPIEKTISKAKGQPREPQVYTLPPSRCELTKNQVSLSCAVKGFYPSDIAVEWESNGQPENNYKTTPPVLDSDGSFFLVSKLTVDKSRWQQGNVFSCSVMHEALHNHYTQKSLSLSPDYKDDDDK EPKSSDKTHTCPPCPAPELLGGPSVFLFPPKPKDTLMISRTPEVTCVVVDVSHEDPEVKFNWYVDGVEVHNAKTKPREEQYNSTYRVVSVLTVLHQDWLNGKEYKCKVSNKALPAPIEKTISKAKGQPREPQVCTLPPSRDELTKNQVSLWCLVKGFYPSDIAVEWESNGQPENNYKTTPPVLDSDGSFFLYSKLTVDKSRWQQGNVFSCSVMHEALHNRYTQKSLSLSP light: DIVMTQSPLSLPVTPGEPASISCRSSQSLVHSNRNTYLHWYQQKPGQAPRLLIYKVSNRFSGVPDRFSGSGSGTDFTLKISRVEAEDVGVYYCGQGTQVPYTFGQGTKLEIKRTVAAPSVFIFPPSDEQLKSGTASVVCLLNNFYPREAKVQWKVDNALQSGNSQESVTEQDSKDSTYSLSSTLTLSKADYEKHKVYACEVTHQGLSSPVTKSFNRGEC | 23 nM |
| CE115HA252-E22Hh//-Hi-Kn010G3/L0000-k0 (antibody, human IgG1, kappa, L234A L235A, N297A, single-arm) heavy: QVQLVESGGGVVQPGRSLRLSCAASGFTFSNAWMHWVRQAPGKGLEWVAQIKAKSNNYKKYYAESVKGRFTISRDDSKNSLYLQMNSLKTEDTAVYYCRYVHYYYYYGVDAWGQGTTVTVSSASTKGPSVFPLAPSSKSTSGGTAALGCLVKDYFPEPVTVSWNSGALTSGVHTFPAVLQSSGLYSLSSVVTVPSSSLGTQTYICNVNHKPSNTKVDKKVEPKSCDKTHTCPPCPAPEAAGGPSVFLFPPKPKDTLMISRTPEVTCVVVDVSHEDPEVKFNWYVDGVEVHNAKTKPREEQYASTYRVVSVLTVLHQDWLNGKEYKCKVSNKALPAPIEKTISKAKGQPREPQVYTLPPSRCELTKNQVSLSCAVKGFYPSDIAVEWESNGQPENNYKTTPPVLDSDGSFFLVSKLTVDKSRWQQGNVFSCSVMHEALHNHYTQKSLSLSPDYKDDDDK EPKSSDKTHTCPPCPAPELLGGPSVFLFPPKPKDTLMISRTPEVTCVVVDVSHEDPEVKFNWYVDGVEVHNAKTKPREEQYNSTYRVVSVLTVLHQDWLNGKEYKCKVSNKALPAPIEKTISKAKGQPREPQVCTLPPSRDELTKNQVSLWCLVKGFYPSDIAVEWESNGQPENNYKTTPPVLDSDGSFFLYSKLTVDKSRWQQGNVFSCSVMHEALHNRYTQKSLSLSP light: DIVMTQSPLSLPVTPGEPASISCRSSQSLVHSNRNTYLHWYQQKPGQAPRLLIYKVSNRFSGVPDRFSGSGSGTDFTLKISRVEAEDVGVYYCGQGTQVPYTFGQGTKLEIKRTVAAPSVFIFPPSDEQLKSGTASVVCLLNNFYPREAKVQWKVDNALQSGNSQESVTEQDSKDSTYSLSSTLTLSKADYEKHKVYACEVTHQGLSSPVTKSFNRGEC | 9.48 nM |

Continued by falling Kd, values first:

| Kd | Binder |
| --- | --- |
| 40.3 nM | TR01H003-E22Hh//-Hi-Kn010G3/L0000-k0 (antibody, human IgG1, kappa, L234A L235A, N297A, single-arm) heavy: QVQLVESGGGVVQPGRSLRLSCAASGFTFSNAWMHWVRQAPGKGLEWVAQIKAKSNNYATYYAESVKGRFTISRDDSKNSLYLQMNSLKTEDTAVYYCRRVHYGAYYGVDAWGQGTTVTVSSASTKGPSVFPLAPSSKSTSGGTAALGCLVKDYFPEPVTVSWNSGALTSGVHTFPAVLQSSGLYSLSSVVTVPSSSLGTQTYICNVNHKPSNTKVDKKVEPKSCDKTHTCPPCPAPEAAGGPSVFLFPPKPKDTLMISRTPEVTCVVVDVSHEDPEVKFNWYVDGVEVHNAKTKPREEQYASTYRVVSVLTVLHQDWLNGKEYKCKVSNKALPAPIEKTISKAKGQPREPQVYTLPPSRCELTKNQVSLSCAVKGFYPSDIAVEWESNGQPENNYKTTPPVLDSDGSFFLVSKLTVDKSRWQQGNVFSCSVMHEALHNHYTQKSLSLSPDYKDDDDK EPKSSDKTHTCPPCPAPELLGGPSVFLFPPKPKDTLMISRTPEVTCVVVDVSHEDPEVKFNWYVDGVEVHNAKTKPREEQYNSTYRVVSVLTVLHQDWLNGKEYKCKVSNKALPAPIEKTISKAKGQPREPQVCTLPPSRDELTKNQVSLWCLVKGFYPSDIAVEWESNGQPENNYKTTPPVLDSDGSFFLYSKLTVDKSRWQQGNVFSCSVMHEALHNRYTQKSLSLSP light: DIVMTQSPLSLPVTPGEPASISCRSSQSLVHSNRNTYLHWYQQKPGQAPRLLIYKVSNRFSGVPDRFSGSGSGTDFTLKISRVEAEDVGVYYCGQGTQVPYTFGQGTKLEIKRTVAAPSVFIFPPSDEQLKSGTASVVCLLNNFYPREAKVQWKVDNALQSGNSQESVTEQDSKDSTYSLSSTLTLSKADYEKHKVYACEVTHQGLSSPVTKSFNRGEC |
| 22.3 nM | CE115HA251-E22Hh//-Hi-Kn010G3/L0000-k0 (antibody, human IgG1, kappa, L234A L235A, N297A, single-arm) heavy: QVQLVESGGGVVQPGRSLRLSCAASGFTFSNAWMHWVRQAPGKGLEWVAQIKAKSNNYATYYAESVKGRFTISRDDSKNSLYLQMNSLKTEDTAVYYCRYVHYYYYYGVDAWGQGTTVTVSSASTKGPSVFPLAPSSKSTSGGTAALGCLVKDYFPEPVTVSWNSGALTSGVHTFPAVLQSSGLYSLSSVVTVPSSSLGTQTYICNVNHKPSNTKVDKKVEPKSCDKTHTCPPCPAPEAAGGPSVFLFPPKPKDTLMISRTPEVTCVVVDVSHEDPEVKFNWYVDGVEVHNAKTKPREEQYASTYRVVSVLTVLHQDWLNGKEYKCKVSNKALPAPIEKTISKAKGQPREPQVYTLPPSRCELTKNQVSLSCAVKGFYPSDIAVEWESNGQPENNYKTTPPVLDSDGSFFLVSKLTVDKSRWQQGNVFSCSVMHEALHNHYTQKSLSLSPDYKDDDDK EPKSSDKTHTCPPCPAPELLGGPSVFLFPPKPKDTLMISRTPEVTCVVVDVSHEDPEVKFNWYVDGVEVHNAKTKPREEQYNSTYRVVSVLTVLHQDWLNGKEYKCKVSNKALPAPIEKTISKAKGQPREPQVCTLPPSRDELTKNQVSLWCLVKGFYPSDIAVEWESNGQPENNYKTTPPVLDSDGSFFLYSKLTVDKSRWQQGNVFSCSVMHEALHNRYTQKSLSLSP light: DIVMTQSPLSLPVTPGEPASISCRSSQSLVHSNRNTYLHWYQQKPGQAPRLLIYKVSNRFSGVPDRFSGSGSGTDFTLKISRVEAEDVGVYYCGQGTQVPYTFGQGTKLEIKRTVAAPSVFIFPPSDEQLKSGTASVVCLLNNFYPREAKVQWKVDNALQSGNSQESVTEQDSKDSTYSLSSTLTLSKADYEKHKVYACEVTHQGLSSPVTKSFNRGEC |
| 21.7 nM | TR01H007-E22Hh/none-Hi-Kn010G3/L0000-k0 (antibody, human IgG1, kappa, L234A L235A, N297A, single-arm) heavy: QVQLVESGGGLVQPGRSLRLSCAASGFTFSNAWMHWVRQAPGKGLEWVAQIKSKSNNYATYYAESVKGRFTISRADSKNSIYLQMNSLKTEDTAVYYCRYVHYGAYYGVDIWGQGTTVTVSSASTKGPSVFPLAPSSKSTSGGTAALGCLVKDYFPEPVTVSWNSGALTSGVHTFPAVLQSSGLYSLSSVVTVPSSSLGTQTYICNVNHKPSNTKVDKKVEPKSCDKTHTCPPCPAPEAAGGPSVFLFPPKPKDTLMISRTPEVTCVVVDVSHEDPEVKFNWYVDGVEVHNAKTKPREEQYASTYRVVSVLTVLHQDWLNGKEYKCKVSNKALPAPIEKTISKAKGQPREPQVYTLPPSRCELTKNQVSLSCAVKGFYPSDIAVEWESNGQPENNYKTTPPVLDSDGSFFLVSKLTVDKSRWQQGNVFSCSVMHEALHNHYTQKSLSLSPDYKDDDDK EPKSSDKTHTCPPCPAPELLGGPSVFLFPPKPKDTLMISRTPEVTCVVVDVSHEDPEVKFNWYVDGVEVHNAKTKPREEQYNSTYRVVSVLTVLHQDWLNGKEYKCKVSNKALPAPIEKTISKAKGQPREPQVCTLPPSRDELTKNQVSLWCLVKGFYPSDIAVEWESNGQPENNYKTTPPVLDSDGSFFLYSKLTVDKSRWQQGNVFSCSVMHEALHNRYTQKSLSLSP light: DIVMTQSPLSLPVTPGEPASISCRSSQSLVHSNRNTYLHWYQQKPGQAPRLLIYKVSNRFSGVPDRFSGSGSGTDFTLKISRVEAEDVGVYYCGQGTQVPYTFGQGTKLEIKRTVAAPSVFIFPPSDEQLKSGTASVVCLLNNFYPREAKVQWKVDNALQSGNSQESVTEQDSKDSTYSLSSTLTLSKADYEKHKVYACEVTHQGLSSPVTKSFNRGEC |
